The text below walks through data of PMC7156267, “Cryo-EM structures of S-OPA1 reveal its interactions with membrane and changes upon nucleotide binding” (eLife, 2020).

This series concerns the molecule itself. The series can be described thus: SEC; Superdex 200 10/300 GL, column pre-calibrated with molecular weight markers; 20 mM Tris-HCl pH 8.0, 150 mM NaCl, 1 mM DTT; self-association in solution. (Size exclusion chromatography separates by hydrodynamic size, large species first.)

B1: S-OPA1 (short S1 isoform of human OPA1, splice form 1), wild type (natural protein, UniProt O60313 196-960, looked up)
chain: TDRGSESDKHFRKVSDKEKIDQLQEELLHTQLKYQRILERLEKENKELRKLVLQKDDKGIHHRKLKKSLIDMYSEVLDVLSDYDASYNTQDHLPRVVVVGDQSAGKTSVLEMIAQARIFPRGSGEMMTRSPVKVTLSEGPHHVALFKDSSREFDLTKEEDLAALRHEIELRMRKNVKEGCTVSPETISLNVKGPGLQRMVLVDLPGVINTVTSGMAPDTKETIFSISKAYMQNPNAIILCIQDGSVDAERSIVTDLVSQMDPHGRRTIFVLTKVDLAEKNVASPSRIQQIIEGKLFPMKALGYFAVVTGKGNSSESIEAIREYEEEFFQNSKLLKTSMLKAHQVTTRNLSLAVSDCFWKMVRESVEQQADSFKATRFNLETEWKNNYPRLRELDRNELFEKAKNEILDEVISLSQVTPKHWEEILQQSLWERVSTHVIENIYLPAAQTMNSGTFNTTVDIKLKQWTDKQLPNKAVEVAWETLQEEFSRFMTEPKGKEHDDIFDKLKEAVKEESIKRHKWNDFAEDSLRVIQHNALEDRSISDKQQWDAAIYFMEEALQARLKDTENAIENMVGPDWKKRWLYWKNRTQEQCVHNETKNELEKMLKCNEEHPAYLASDEITTVRKNLESRGVEVDPSLIKDTWHQVYRRHFLKTALNHCNLCRRGFYYYQRHFVDSELECNDVVLFWRIQRMLAITANTLRQQLTNTEVRRLEKNVKEVLEDFAEDGEKKIKLLTGKRVQLAEDLKKVREIQEKLDAFIEALHQEK
notes: Optic atrophy 1 (OPA1), human, splice form 1 (isoform 1); Dimer in solution by gel filtration, BS3 cross-linking and SEC-MALS; The first residue is worked out from the S1 site (195th residue) and the name of the deletion Δ196-252; also called WT; full-length S-OPA1; source: E. coli Transetta (DE3), purified (Ni-NTA, PreScission cleavage, Superdex 200 gel filtration); not shown: Trx, N-terminal, …
What is called stoichiometry N is a count of units in the complex or per binding partner. In the case of B1, the “stoichiometry N” value is 2.
